Data reported in publication PMC8660799, “Cryo-EM reveals unique structural features of the FhuCDB Escherichia coli ferrichrome importer” (Communications Biology, 2021).
Where two headings read alike, the source gives them in different places. One block for each molecule: values may come before it.

Key:
BtuF (Escherichia coli) [1] = biological target: BtuF (Escherichia coli) (UniProt P37028); conditions: cited from earlier work
BtuF (Escherichia coli) [2] = biological target: BtuF (Escherichia coli) (UniProt P37028); conditions: cited from earlier work; remark: listed apart in the source
[3] = biological target: T1, FhuCB subcomplex (membrane subunit FhuB and cytosolic ATPase FhuC of the ferrichrome importer), wild type (Escherichia coli, UniProt P07821 1-265; P06972 1-660, red-tris-NTA 2nd generation dye on the His-tag (in the MST experiments)); assay: MST; 40 nM FhuCB in detergent, His-tag labelled with red-tris-NTA 2nd generation dye; serial dilution of 1.6 μM FhuD with substrate ferrichrome; with ATP; Monolith NT.115pico, 20% LED power, medium MST power; conditions: both partners purified
T1 construct: cloned from the genome with the operon; a thrombin site stands between the His-tag and FhuC; Made from FhuCB-pET15b (FhuD gene deleted from FhuCDB-pET15b); The copy numbers (two FhuC, one FhuB) are told for the FhuCDB structure; In the gel filtration experiment the same chains came from the FhuCDB construct, co-expressed with FhuD; also called Fhu importer; wild-type FhuCB; source: E. coli …
T1 sequence (looked up) 1: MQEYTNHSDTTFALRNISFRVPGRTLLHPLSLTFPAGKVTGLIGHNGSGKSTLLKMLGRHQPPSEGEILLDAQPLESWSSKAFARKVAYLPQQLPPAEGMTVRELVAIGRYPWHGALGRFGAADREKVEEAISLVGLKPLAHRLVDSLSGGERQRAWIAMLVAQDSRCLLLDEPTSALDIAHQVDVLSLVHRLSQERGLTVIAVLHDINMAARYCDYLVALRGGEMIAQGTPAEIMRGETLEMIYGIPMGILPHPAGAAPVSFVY
T1 sequence (looked up) 2: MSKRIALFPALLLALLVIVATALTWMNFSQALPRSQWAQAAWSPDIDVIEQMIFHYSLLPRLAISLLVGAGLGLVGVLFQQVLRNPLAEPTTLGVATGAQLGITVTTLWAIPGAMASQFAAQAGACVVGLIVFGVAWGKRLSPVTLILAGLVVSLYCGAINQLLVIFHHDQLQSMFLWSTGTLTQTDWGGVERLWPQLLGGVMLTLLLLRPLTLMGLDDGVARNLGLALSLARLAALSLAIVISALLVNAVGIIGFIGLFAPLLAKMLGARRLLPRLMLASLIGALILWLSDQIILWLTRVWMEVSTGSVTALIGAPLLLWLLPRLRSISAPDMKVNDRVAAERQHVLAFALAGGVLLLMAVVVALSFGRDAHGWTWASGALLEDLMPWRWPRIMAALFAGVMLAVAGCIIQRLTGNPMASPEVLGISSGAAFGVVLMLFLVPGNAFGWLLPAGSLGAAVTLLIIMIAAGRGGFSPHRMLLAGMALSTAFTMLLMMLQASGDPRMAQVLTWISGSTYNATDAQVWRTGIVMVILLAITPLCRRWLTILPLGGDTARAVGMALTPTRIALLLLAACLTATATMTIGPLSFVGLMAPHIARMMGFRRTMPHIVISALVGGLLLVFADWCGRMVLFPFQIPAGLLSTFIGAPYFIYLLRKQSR

[4] = biological target: T1, FhuCB subcomplex (membrane subunit FhuB …); assay: MST; 40 nM FhuCB in detergent, His-tag labelled with red-tris-NTA 2nd generation dye; serial dilution of 1.6 μM FhuD with substrate ferrichrome; without ATP-Mg; Monolith NT.115pico, 20% LED power, medium MST power; conditions: both partners purified
[5] = substrate: Nc1ncnc2c1ncn2[C@@H]1O[C@H](COP(=O)(O)OP(=O)(O)OP(=O)(O)O)[C@@H](O)[C@H]1O; assay: ATPase assay in proteoliposomes, malachite green phosphate detection; type: biochemical, Escherichia coli; conditions: MgCl2, 37 °C

BtuF (Escherichia coli), sequence (P37028 23-266): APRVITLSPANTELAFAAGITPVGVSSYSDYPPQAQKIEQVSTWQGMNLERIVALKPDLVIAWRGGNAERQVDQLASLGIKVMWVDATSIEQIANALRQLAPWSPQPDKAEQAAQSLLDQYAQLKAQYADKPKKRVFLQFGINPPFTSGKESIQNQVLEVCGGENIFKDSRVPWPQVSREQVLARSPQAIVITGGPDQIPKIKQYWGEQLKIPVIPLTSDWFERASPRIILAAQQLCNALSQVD

Molecule: BtuCD (from UniProt P06609)
- Kd (BtuF (Escherichia coli) [1]): 0.00012 nM
- Kd (BtuF (Escherichia coli) [2]): 21.1 nM

- Kd [3]: ~1.03 nM
- Kd [4]: ~12.2 nM
B1: FhuD, periplasmic substrate-binding protein, expressed alone (natural protein, Escherichia coli, UniProt P07822 31-296, looked up)
chain: AAIDPNRIVALEWLPVELLLALGIVPYGVADTINYRLWVSEPPLPDSVIDVGLRTEPNLELLTEMKPSFMVWSAGYGPSPEMLARIAPGRGFNFSDGKQPLAMARKSLTEMADLLNLQSAAETHLAQYEDFIRSMKPRFVKRGARPLLLTTLIDPRHMLVFGPNSLFQEILDEYGIPNAWQGETNFWGSTAVSIDRLAAYKDVDVLCFDHDNSKDMDALMATPLWQAMPFVRAGRFQRVPAVWFYGATLSAMHFVRVLDNAIGGKA
notes: the gene was amplified and cloned into pET15b; Used without substrate and loaded with the small molecule ferrichrome (told apart by the assays); also called SBP; ferrichrome-loaded FhuD

B2: FhuCB subcomplex (Escherichia coli K-12) (protein)
chain: MQEYTNHSDTTFALRNISFRVPGRTLLHPLSLTFPAGKVTGLIGHNGSGKSTLLKMLGRHQPPSEGEILLDAQPLESWSSKAFARKVAYLPQQLPPAEGMTVRELVAIGRYPWHGALGRFGAADREKVEEAISLVGLKPLAHRLVDSLSGGERQRAWIAMLVAQDSRCLLLDEPTSALDIAHQVDVLSLVHRLSQERGLTVIAVLHDINMAARYCDYLVALRGGEMIAQGTPAEIMRGETLEMIYGIPMGILPHPAGAAPVSFVY
notes: full-length FhuB and FhuC without FhuD; N-terminal His-tag and thrombin site on FhuC; pET15b, E. coli BL21(DE3) C43; purified in LMNG, reconstituted in E. coli polar lipid proteoliposomes; with Iron(3+)-hydroxamate import system permease protein FhuB
- Km ([5]; Michaelis-Menten fit with Hill coefficient (cooperative), no FhuD): 690 ± 80 µM

B3: FhuCB + FhuD (ATPase assay) (Escherichia coli K-12) (protein)
chain: MQEYTNHSDTTFALRNISFRVPGRTLLHPLSLTFPAGKVTGLIGHNGSGKSTLLKMLGRHQPPSEGEILLDAQPLESWSSKAFARKVAYLPQQLPPAEGMTVRELVAIGRYPWHGALGRFGAADREKVEEAISLVGLKPLAHRLVDSLSGGERQRAWIAMLVAQDSRCLLLDEPTSALDIAHQVDVLSLVHRLSQERGLTVIAVLHDINMAARYCDYLVALRGGEMIAQGTPAEIMRGETLEMIYGIPMGILPHPAGAAPVSFVY
notes: FhuCB (N-terminal His-tag and thrombin site on FhuC) in proteoliposomes with purified FhuD enclosed; with Iron(3+)-hydroxamate import system permease protein FhuB
- Km ([5]; Michaelis-Menten fit with Hill coefficient, 1 μM FhuD enclosed, no ferrichrome): 740 ± 50 µM
